Assays:
HLA-B*07:02 = assay: IEDB peptide-MHC binding, purified MHC/direct/fluorescence; filed as Kd, often an IC50 or EC50 that approximates it; ≥ and ≤ were set here for values at or beyond the usual limits of such assays
HLA-A*02:03 = assay: as above
HLA-B*51:01 [1] = assay: as above
HLA-A*26:01 [2] = assay: as above
HLA-A*03:01 [3] = assay: as above
HLA-B*35:01 = assay: as above
HLA-A*02:01 = assay: as above
HLA-A*02:16 = assay: as above
HLA-A*02:12 [4] = assay: as above
HLA-B*27:03 [5] = assay: as above
HLA-A*02:11 = assay: as above
HLA-B*46:01 [6] = assay: as above
HLA-B*15:01 [7] = assay: as above
HLA-B*57:01 [8] = assay: as above
HLA-B*39:01 [9] = assay: as above
HLA-A*02:19 [10] = assay: as above
HLA-A*24:03 = assay: as above
HLA-B*18:01 [11] = assay: as above
HLA-A*69:01 = assay: as above
HLA-A*68:02 [12] = assay: IEDB peptide-MHC binding, purified MHC/competitive/fluorescence; filed as Kd, often an IC50 or EC50 that approximates it; ≥ and ≤ were set here for values at or beyond the usual limits of such assays
HLA-B*57:01 [13] = assay: IEDB peptide-MHC binding, purified MHC/competitive/radioactivity; filed as Kd, often an IC50 or EC50 that approximates it; ≥ and ≤ were set here for values at or beyond the usual limits of such assays
HLA-B*15:01 [14] = assay: as above; conditions: source organism: Dengue virus 2 Jamaica/1409/1983
HLA-B*51:01 [15] = assay: IEDB peptide-MHC binding, purified MHC/competitive/fluorescence; filed as Kd, often an IC50 or EC50 that approximates it; ≥ and ≤ were set here for values at or beyond the usual limits of such assays; conditions: source organism: Cryptosporidium parvum Iowa II
HLA-A*26:01 [16] = assay: as above; conditions: source organism: Cryptosporidium parvum Iowa II
HLA-A*03:01 [17] = assay: as above; conditions: source organism: Cryptosporidium parvum Iowa II
HLA-A*29:02 [18] = assay: as above; conditions: source organism: Cryptosporidium parvum Iowa II
HLA-A*02:12 [19] = assay: as above; conditions: source organism: Cryptosporidium parvum Iowa II
HLA-B*27:03 [20] = assay: as above; conditions: source organism: Cryptosporidium parvum Iowa II
HLA-B*46:01 [21] = assay: as above; conditions: source organism: Cryptosporidium parvum Iowa II
HLA-B*39:01 [22] = assay: as above; conditions: source organism: Cryptosporidium parvum Iowa II
HLA-A*02:19 [23] = assay: as above; conditions: source organism: Cryptosporidium parvum Iowa II
HLA-B*18:01 [24] = assay: as above; conditions: source organism: Cryptosporidium parvum Iowa II
HLA-A*01:01 = assay: as above; conditions: source organism: Influenza A virus (A/swine/Finistere/127/99(H3N2))
HLA-A*29:02 [25] = assay: IEDB peptide-MHC binding, purified MHC/direct/fluorescence; filed as Kd, often an IC50 or EC50 that approximates it; ≥ and ≤ were set here for values at or beyond the usual limits of such assays; conditions: source organism: Burkholderia mallei ATCC 23344
HLA-B*15:17 = assay: as above; conditions: source organism: Burkholderia mallei ATCC 23344
HLA-A*68:02 [26] = assay: as above
HLA-A*68:02 [27] = assay: IEDB peptide-MHC binding, purified MHC/competitive/radioactivity; filed as Kd, often an IC50 or EC50 that approximates it; ≥ and ≤ were set here for values at or beyond the usual limits of such assays; conditions: source organism: Dengue virus 1 Brazil/97-11/1997
[28] = source organism: Vibrio parahaemolyticus AQ3810
[29] = source organism: Mycobacterium tuberculosis str. Haarlem
[30] = source organism: Dengue virus 2 Jamaica/1409/1983
[31] = source organism: Cryptosporidium parvum Iowa II
[32] = source organism: Burkholderia mallei ATCC 23344
[33] = source organism: Burkholderia mallei

Sequence EASTWLDIF has a Kd (HLA-B*07:02; [28]) of no less than 20 µM, a Kd (HLA-A*02:03; [28]) of no less than 20 µM and a Kd (HLA-B*51:01 [1]; [28]) of no less than 20 µM. The Kd (HLA-A*26:01 [2]; [28]) was no less than 20 µM, the Kd (HLA-A*03:01 [3]; [28]) was no less than 20 µM and the Kd (HLA-B*35:01; [28]) was 0.016 µM. It also gave a Kd (HLA-A*02:01; [28]) of no less than 20 µM, a Kd (HLA-A*02:16; [28]) of no less than 20 µM and a Kd (HLA-A*02:12 [4]; [28]) of no less than 20 µM. The Kd (HLA-B*27:03 [5]; [28]) was no less than 20 µM, the Kd (HLA-A*02:11; [28]) was no less than 20 µM and the Kd (HLA-B*46:01 [6]; [28]) was no less than 20 µM. For the same sequence, the Kd (HLA-B*15:01 [7]; [28]) was 0.174 µM, the Kd (HLA-B*57:01 [8]; [28]) was no less than 20 µM and the Kd (HLA-B*39:01 [9]; [28]) was no less than 20 µM. For the same sequence, the Kd (HLA-A*02:19 [10]; [28]) was no less than 20 µM, the Kd (HLA-A*24:03; [28]) was no less than 20 µM and the Kd (HLA-B*18:01 [11]; [28]) was no less than 20 µM. For the same sequence, the Kd (HLA-A*69:01; [28]) was no less than 20 µM.
With EILWDVIPF the Kd (HLA-B*07:02; [29]) was 6.5 µM, the Kd (HLA-A*02:03; [29]) was no less than 20 µM and the Kd (HLA-B*51:01 [1]; [29]) was no less than 20 µM. For the same sequence, the Kd (HLA-A*26:01 [2]; [29]) was no less than 20 µM, the Kd (HLA-A*03:01 [3]; [29]) was no less than 20 µM and the Kd (HLA-B*35:01; [29]) was 0.003 µM. For the same sequence, the Kd (HLA-A*02:01; [29]) was no less than 20 µM, the Kd (HLA-A*02:16; [29]) was no less than 20 µM and the Kd (HLA-A*02:12 [4]; [29]) was no less than 20 µM. The Kd (HLA-B*27:03 [5]; [29]) was no less than 20 µM, the Kd (HLA-B*46:01 [6]; [29]) was no less than 20 µM and the Kd (HLA-B*15:01 [7]; [29]) was 0.191 µM. The Kd (HLA-B*57:01 [8]; [29]) was no less than 20 µM, the Kd (HLA-B*39:01 [9]; [29]) was no less than 20 µM and the Kd (HLA-A*02:19 [10]; [29]) was no less than 20 µM. It also gave a Kd (HLA-A*24:03; [29]) of no less than 20 µM.
In the case of ESAEVEVYV, the Kd (HLA-A*68:02 [12]; source organism: Vibrio vulnificus YJ016) is reported as no more than 0.0001 µM.
Sequence ISQGAGWSL has a Kd (HLA-B*57:01 [13]; [30]) of 0.472 µM.
ISRMLINRF showed a Kd (HLA-B*15:01 [14]) of 0.178 µM and a Kd (HLA-B*57:01 [13]; [30]) of 0.0159 µM.
KIVPLPPMY was tested, and the Kd (HLA-B*51:01 [15]) was no less than 20 µM, the Kd (HLA-A*26:01 [16]) was no less than 20 µM and the Kd (HLA-A*03:01 [17]) was 0.796 µM. The Kd (HLA-A*29:02 [18]) was 0.277 µM, the Kd (HLA-A*02:12 [19]) was no less than 20 µM and the Kd (HLA-B*27:03 [20]) was no less than 20 µM. The Kd (HLA-B*46:01 [21]) was no less than 20 µM, the Kd (HLA-B*39:01 [22]) was no less than 20 µM and the Kd (HLA-A*02:19 [23]) was no less than 20 µM. For the same sequence, the Kd (HLA-B*18:01 [24]) was no less than 20 µM.
With LASIDLKY the Kd (HLA-A*01:01) was 3.46 µM.
With LPLESCFGV the Kd (HLA-A*02:03; [31]) was no less than 20 µM, the Kd (HLA-B*51:01 [1]; [31]) was 0.355 µM and the Kd (HLA-A*26:01 [2]; [31]) was no less than 20 µM. The Kd (HLA-A*03:01 [3]; [31]) was no less than 20 µM, the Kd (HLA-A*02:12 [4]; [31]) was no less than 20 µM and the Kd (HLA-B*27:03 [5]; [31]) was no less than 20 µM. The Kd (HLA-A*02:11; [31]) was no less than 20 µM, the Kd (HLA-B*46:01 [6]; [31]) was no less than 20 µM and the Kd (HLA-B*15:01 [7]; [31]) was no less than 20 µM. The Kd (HLA-B*57:01 [8]; [31]) was no less than 20 µM, the Kd (HLA-A*02:19 [10]; [31]) was no less than 20 µM and the Kd (HLA-A*24:03; [31]) was no less than 20 µM. For the same sequence, the Kd (HLA-B*18:01 [11]; [31]) was no less than 20 µM.
Work on LTSRENLLLG yielded a Kd (HLA-B*57:01 [13]; source organism: Dengue virus 3 Martinique/1243/1999) of 0.541 µM.
In the case of QHAWPLPPL, the Kd (HLA-A*02:03; [32]) is reported as no less than 20 µM, the Kd (HLA-B*51:01 [1]; [32]) is reported as no less than 20 µM and the Kd (HLA-A*26:01 [2]; [32]) is reported as no less than 20 µM. For the same sequence, the Kd (HLA-A*03:01 [3]; [32]) was no less than 20 µM, the Kd (HLA-A*29:02 [25]) was no less than 20 µM and the Kd (HLA-A*02:01; [32]) was no less than 20 µM. The Kd (HLA-A*02:16; [32]) was no less than 20 µM, the Kd (HLA-A*02:12 [4]; [32]) was no less than 20 µM and the Kd (HLA-B*27:03 [5]; [32]) was no less than 20 µM. It also gave a Kd (HLA-B*46:01 [6]; [32]) of no less than 20 µM, a Kd (HLA-B*15:01 [7]; [32]) of no less than 20 µM and a Kd (HLA-B*57:01 [8]; [32]) of no less than 20 µM. The Kd (HLA-B*15:17) was no less than 20 µM, the Kd (HLA-A*68:02 [26]; [32]) was no less than 20 µM and the Kd (HLA-A*02:19 [10]; [32]) was no less than 20 µM. It also gave a Kd (HLA-B*18:01 [11]; [32]) of no less than 20 µM.
With QTSGTTTIFA the Kd (HLA-B*57:01 [13]; source organism: Dengue virus 1 Brazil/97-11/1997) was 0.454 µM and the Kd (HLA-A*68:02 [27]) was 0.00212 µM.
For RVVRPWGSY, the Kd (HLA-A*02:03; [33]) was no less than 20 µM, the Kd (HLA-B*51:01 [1]; [33]) was no less than 20 µM and the Kd (HLA-A*26:01 [2]; [33]) was no less than 20 µM. The Kd (HLA-A*02:01; [33]) was no less than 20 µM, the Kd (HLA-A*02:16; [33]) was no less than 20 µM and the Kd (HLA-A*02:12 [4]; [33]) was no less than 20 µM. For the same sequence, the Kd (HLA-B*27:03 [5]; [33]) was no less than 20 µM, the Kd (HLA-A*02:11; [33]) was no less than 20 µM and the Kd (HLA-B*46:01 [6]; [33]) was no less than 20 µM. It also gave a Kd (HLA-A*68:02 [26]; [33]) of no less than 20 µM, a Kd (HLA-B*39:01 [9]; [33]) of no less than 20 µM and a Kd (HLA-A*02:19 [10]; [33]) of no less than 20 µM. The Kd (HLA-A*24:03; [33]) was no less than 20 µM, the Kd (HLA-B*18:01 [11]; [33]) was no less than 20 µM and the Kd (HLA-A*69:01; [33]) was no less than 20 µM.
STYWLMAGL was tested, and the Kd (HLA-A*68:02 [12]; source organism: Yersinia pestis Nepal516) was 0.0005 µM.

— the Immune Epitope Database (IEDB)
